Data set [1] addresses HSF2 DBD (Homo sapiens, UniProt Q03933 8-115). As to the kind of experiment: X-ray crystallography.
Data set [2] concerns the molecule itself. As to the kind of experiment: crystal structure.

B1: 2-site HSE (dsDNA)
DNA 1: GGTTCTAGAACC
DNA 2: GGTTCTAGAACC
With B1, the binding result in data set [1] was “binds”.

B2: human HSF2 DNA-binding domain (amino acids 8–115) (domain or fragment, UniProt Q03933 8-115, looked up)
chain: PAFLSKLWTLVEETHTNEFITWSQNGQSFLVLDEQRFAKEILPKYFKHNNMASFVRQLNMYGFRKVVHIDSGIVKQERDGPVEFQHPYFKQGQDDLLENIKRKVSSSK
For the molecule B2, the binding result in data set [2] was “binds”.
